The values below are quoted from earlier work in publication PMC5423825.

pKd: −log10 of the molar value.

The target of this data set is CFluc398 (FGG-tagged C-terminal firefly luciferase fragment) CFluc398 (Photinus pyralis) [luciferase: P08659].

One may read the pKd as the Kd on a negative log10 scale, so that one unit is a factor of ten. For the substance “NFluc437 (FGG-tagged N-terminal firefly luciferase fragment) NFluc437 (from UniProt P08659)”, the negative logarithm of the Kd (pKd) was 3.95.
